Laboratory results taken from the supplement of paper PMC10567573.

B1: FBXO34 (parent)
chain: PRYREDPCKQCKKKYVKGDVSLCR
B2: WDFY1 (parent)
chain: FWNIKQMWDTKTLGLRQHHCRKCG

Variants of: B1
Assay: protein stability index of a GFP-peptide fusion (GPS, HEK-293T) (PSI 1-6); higher = more stable
Conditions: c terminus: a fixed tail appended
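Note: lentivirally expressed fusions sorted by FACS into six bins by GFP to DsRed ratio, PSI derived from sequencing read proportions per bin multiplied by bin number.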

| Variant | protein stability index |
| --- | --- |
| FRYREDPCKQCKKKYVKGDVSLCR [P1F] | 2.61 |
| MRYREDPCKQCKKKYVKGDVSLCR [P1M] | 2.75 |
| NRYREDPCKQCKKKYVKGDVSLCR [P1N] | 3.42 |
| QRYREDPCKQCKKKYVKGDVSLCR [P1Q] | 2.86 |
| YRYREDPCKQCKKKYVKGDVSLCR [P1Y] | 2.45 |
| IRYREDPCKQCKKKYVKGDVSLCR [P1I] | 2.34 |
| WRYREDPCKQCKKKYVKGDVSLCR [P1W] | 1.78 |
| LRYREDPCKQCKKKYVKGDVSLCR [P1L] | 1.93 |
| SRYREDPCKQCKKKYVKGDVSLCR [P1S] | 2.6 |
| ARYREDPCKQCKKKYVKGDVSLCR [P1A] | 3.11 |
| ERYREDPCKQCKKKYVKGDVSLCR [P1E] | 3.4 |
| DRYREDPCKQCKKKYVKGDVSLCR [P1D] | 2.96 |
| VRYREDPCKQCKKKYVKGDVSLCR [P1V] | 2.22 |
| GRYREDPCKQCKKKYVKGDVSLCR [P1G] | 2.89 |
| TRYREDPCKQCKKKYVKGDVSLCR [P1T] | 2.75 |
| CRYREDPCKQCKKKYVKGDVSLCR [P1C] | 2.02 |
| KRYREDPCKQCKKKYVKGDVSLCR [P1K] | 3.65 |
| RRYREDPCKQCKKKYVKGDVSLCR [P1R] | 2.96 |
| HRYREDPCKQCKKKYVKGDVSLCR [P1H] | 2.85 |
| PGYREDPCKQCKKKYVKGDVSLCR [R2G] | 3.47 |
| PKYREDPCKQCKKKYVKGDVSLCR [R2K] | 2.52 |
| PDYREDPCKQCKKKYVKGDVSLCR [R2D] | 3.03 |
| PFYREDPCKQCKKKYVKGDVSLCR [R2F] | 2.66 |
| PNYREDPCKQCKKKYVKGDVSLCR [R2N] | 2.85 |

| Variant | protein stability index |
| --- | --- |
| PCYREDPCKQCKKKYVKGDVSLCR [R2C] | 2.41 |
| PTYREDPCKQCKKKYVKGDVSLCR [R2T] | 2 |
| PAYREDPCKQCKKKYVKGDVSLCR [R2A] | 2.96 |
| PSYREDPCKQCKKKYVKGDVSLCR [R2S] | 3.03 |
| PWYREDPCKQCKKKYVKGDVSLCR [R2W] | 3.25 |
| PMYREDPCKQCKKKYVKGDVSLCR [R2M] | 2.49 |
| PYYREDPCKQCKKKYVKGDVSLCR [R2Y] | 2.64 |
| PEYREDPCKQCKKKYVKGDVSLCR [R2E] | 2.97 |
| PPYREDPCKQCKKKYVKGDVSLCR [R2P] | 2.75 |
| PVYREDPCKQCKKKYVKGDVSLCR [R2V] | 2.98 |
| PHYREDPCKQCKKKYVKGDVSLCR [R2H] | 2.86 |
| PLYREDPCKQCKKKYVKGDVSLCR [R2L] | 2.76 |
| PQYREDPCKQCKKKYVKGDVSLCR [R2Q] | 3 |
| PIYREDPCKQCKKKYVKGDVSLCR [R2I] | 2.98 |
| PRGREDPCKQCKKKYVKGDVSLCR [Y3G] | 3.39 |
| PRFREDPCKQCKKKYVKGDVSLCR [Y3F] | 2.93 |
| PRAREDPCKQCKKKYVKGDVSLCR [Y3A] | 3.39 |
| PRIREDPCKQCKKKYVKGDVSLCR [Y3I] | 2.76 |
| PRDREDPCKQCKKKYVKGDVSLCR [Y3D] | 2.82 |
| PRCREDPCKQCKKKYVKGDVSLCR [Y3C] | 2.77 |
| PREREDPCKQCKKKYVKGDVSLCR [Y3E] | 4 |
| PRKREDPCKQCKKKYVKGDVSLCR [Y3K] | 2.63 |
| PRHREDPCKQCKKKYVKGDVSLCR [Y3H] | 2.67 |
| PRLREDPCKQCKKKYVKGDVSLCR [Y3L] | 2.73 |

Variants of: B2
Assay: as above
Conditions: c terminus: a fixed tail appended

| Variant | protein stability index |
| --- | --- |
| FWNIKQMWDTKTLGLRQHHCRKCN [G24N] | 2.09 |
| FWNIKQMWDTKTLGLRQHHCRKCF [G24F] | 1.96 |
| FWNIKQMWDTKTLGLRQHHCRKCM [G24M] | 1.85 |
| FWNIKQMWDTKTLGLRQHHCRKCI [G24I] | 2.11 |
| FWNIKQMWDTKTLGLRQHHCRKCV [G24V] | 2.01 |
| FWNIKQMWDTKTLGLRQHHCRKCA [G24A] | 1.84 |
| FWNIKQMWDTKTLGLRQHHCRKCC [G24C] | 2.22 |
| FWNIKQMWDTKTLGLRQHHCRKCQ [G24Q] | 2.21 |
| FWNIKQMWDTKTLGLRQHHCRKCR [G24R] | 2.35 |
| FWNIKQMWDTKTLGLRQHHCRKCL [G24L] | 2.22 |
| FWNIKQMWDTKTLGLRQHHCRKCS [G24S] | 2.1 |
| FWNIKQMWDTKTLGLRQHHCRKCW [G24W] | 2.12 |
| FWNIKQMWDTKTLGLRQHHCRKCD [G24D] | 2.15 |
| FWNIKQMWDTKTLGLRQHHCRKCT [G24T] | 2.29 |
| FWNIKQMWDTKTLGLRQHHCRKCY [G24Y] | 2.01 |
| FWNIKQMWDTKTLGLRQHHCRKCH [G24H] | 2.13 |
| FWNIKQMWDTKTLGLRQHHCRKCE [G24E] | 2.18 |
| FWNIKQMWDTKTLGLRQHHCRKCK [G24K] | 2.5 |
| FWNIKQMWDTKTLGLRQHHCRKCP [G24P] | 1.88 |
| FWNIKQMWDTKTLGLRQHHCRDCG [K22D] | 3.4 |
| FWNIKQMWDTKTLGLRQHHCRFCG [K22F] | 3.26 |
| FWNIKQMWDTKTLGLRQHHCRNCG [K22N] | 1.99 |
| FWNIKQMWDTKTLGLRQHHCRVCG [K22V] | 1.41 |

| Variant | protein stability index |
| --- | --- |
| FWNIKQMWDTKTLGLRQHHCRCCG [K22C] | 1.7 |
| FWNIKQMWDTKTLGLRQHHCRSCG [K22S] | 1.66 |
| FWNIKQMWDTKTLGLRQHHCRMCG [K22M] | 1.03 |
| FWNIKQMWDTKTLGLRQHHCRLCG [K22L] | 1.34 |
| FWNIKQMWDTKTLGLRQHHCRECG [K22E] | 1.6 |
| FWNIKQMWDTKTLGLRQHHCRQCG [K22Q] | 2.01 |
| FWNIKQMWDTKTLGLRQHHCRGCG [K22G] | 1.82 |
| FWNIKQMWDTKTLGLRQHHCRHCG [K22H] | 1.44 |
| FWNIKQMWDTKTLGLRQHHCRPCG [K22P] | 1.98 |
| FWNIKQMWDTKTLGLRQHHCRYCG [K22Y] | 2.2 |
| FWNIKQMWDTKTLGLRQHHCRACG [K22A] | 1.59 |
| FWNIKQMWDTKTLGLRQHTCRKCG [H19T] | 1.59 |
| FWNIKQMWDTKTLGLRQHFCRKCG [H19F] | 1.64 |
| FWNIKQMWDTKTLGLRQHMCRKCG [H19M] | 1.92 |
| FWNIKQMWDTKTLGLRQHWCRKCG [H19W] | 1.66 |
| FWNIKQMWDTKTLGLRQHVCRKCG [H19V] | 2.17 |
| FWNIKQMWDTKTLGLRQHCCRKCG [H19C] | 2.14 |
| FWNIKQMWDTKTLGLRQHLCRKCG [H19L] | 2.23 |
| FWNIKQMWDTKTLGLRQHQCRKCG [H19Q] | 2.4 |
| FWNIKQMWDTKTLGLRQHPCRKCG [H19P] | 2.66 |
| FWNIKQMWDTKTLGLRQHKCRKCG [H19K] | 2.33 |
| FWNIKQMWDTKTLGLRQHGCRKCG [H19G] | 1.63 |
| FWNIKQMWDTKTLGLRQHRCRKCG [H19R] | 1.75 |
